To fix the notation:
T1: EF-Biotin (B. anthracis, UniProt P40136 34-800)
T1 sequence: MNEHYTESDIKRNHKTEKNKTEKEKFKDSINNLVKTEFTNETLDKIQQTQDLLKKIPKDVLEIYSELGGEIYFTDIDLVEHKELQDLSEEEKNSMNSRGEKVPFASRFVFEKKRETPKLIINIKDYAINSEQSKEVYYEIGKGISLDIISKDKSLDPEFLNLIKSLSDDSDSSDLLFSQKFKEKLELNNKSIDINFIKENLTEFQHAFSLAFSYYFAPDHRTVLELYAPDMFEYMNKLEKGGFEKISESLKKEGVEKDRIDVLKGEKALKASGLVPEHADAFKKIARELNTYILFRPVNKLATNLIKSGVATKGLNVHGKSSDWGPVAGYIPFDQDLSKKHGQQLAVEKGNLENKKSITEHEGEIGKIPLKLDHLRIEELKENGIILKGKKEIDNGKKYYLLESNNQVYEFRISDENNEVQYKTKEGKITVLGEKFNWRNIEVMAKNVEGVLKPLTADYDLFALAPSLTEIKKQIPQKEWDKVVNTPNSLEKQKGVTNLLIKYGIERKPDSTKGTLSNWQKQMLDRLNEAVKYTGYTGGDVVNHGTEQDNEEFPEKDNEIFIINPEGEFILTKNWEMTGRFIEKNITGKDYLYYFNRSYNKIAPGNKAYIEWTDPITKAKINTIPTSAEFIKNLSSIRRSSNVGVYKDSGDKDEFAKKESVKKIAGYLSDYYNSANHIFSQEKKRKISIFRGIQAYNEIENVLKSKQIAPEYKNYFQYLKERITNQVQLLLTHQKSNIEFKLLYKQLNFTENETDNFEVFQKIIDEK

T2: LF-Biotin (B. anthracis, UniProt P15917 34-809)
T2 sequence: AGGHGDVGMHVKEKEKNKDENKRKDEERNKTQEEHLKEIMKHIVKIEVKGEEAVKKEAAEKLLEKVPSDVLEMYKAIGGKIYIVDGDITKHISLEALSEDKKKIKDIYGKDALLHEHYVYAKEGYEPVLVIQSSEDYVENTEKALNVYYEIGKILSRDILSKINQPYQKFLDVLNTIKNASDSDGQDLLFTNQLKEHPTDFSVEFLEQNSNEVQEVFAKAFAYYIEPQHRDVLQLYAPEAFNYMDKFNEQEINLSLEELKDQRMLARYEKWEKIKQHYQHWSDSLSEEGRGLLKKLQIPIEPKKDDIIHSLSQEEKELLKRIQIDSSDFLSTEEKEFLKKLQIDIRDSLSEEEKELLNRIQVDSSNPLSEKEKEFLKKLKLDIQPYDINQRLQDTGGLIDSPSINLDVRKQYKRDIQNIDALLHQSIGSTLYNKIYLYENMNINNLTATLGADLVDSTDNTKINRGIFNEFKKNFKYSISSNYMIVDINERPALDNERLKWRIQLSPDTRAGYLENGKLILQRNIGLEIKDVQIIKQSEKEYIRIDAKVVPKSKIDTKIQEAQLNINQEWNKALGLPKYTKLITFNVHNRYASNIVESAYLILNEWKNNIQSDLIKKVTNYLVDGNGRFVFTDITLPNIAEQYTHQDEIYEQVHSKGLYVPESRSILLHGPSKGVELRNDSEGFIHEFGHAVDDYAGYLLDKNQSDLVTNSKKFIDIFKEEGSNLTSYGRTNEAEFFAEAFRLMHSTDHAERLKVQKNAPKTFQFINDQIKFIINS

B1: clone 28 (VHH)
VHH: EVQLQASGGGFVQPGGSLRLSCAASGASYRGTSMGWFRQAPGKEREFVSAISFRPDQQPYYADSVKGRFTISRDNSKNTVYLQMNSLRAEDTATYYCAERRQHSRGLYWGQGTQVTVSS
B2: clone 41 (VHH)
VHH: EVQLQASGGGFVQPGGSLRLSCAASGDTWRTTAMGWFRQAPGKEREFVSAISGGDNRGTYYADSVKGRFTISRDNSKNTVYLQMNSLRAEDTATYYCAGRLNQNGPMYWGQGTQVTVSS
B3: clone 42 (VHH)
VHH: EVQLQASGGGFVQPGGSLRLSCAASGDGSFASAMGWFRQAPGKEREFVSAISAHAGGSPYYADSVKGRFTISRDNSKNTVYLQMNSLRAEDTATYYCAQRIGATRAMYWGQGTQVTVSS
B4: clone 40 (VHH)
VHH: EVQLQASGGGFVQPGGSLRLSCAASGRTFDGSAMGWFRQAPGKEREFVSAISASPSGESYYADSVKGRFTISRDNSKNTVYLQMNSLRAEDTATYYCAGRGRSQKSMYWGQGTQVTVSS
B5: clone 26 (VHH)
VHH: EVQLQASGGGFVQPGGSLRLSCAASGAYSARTTMGWFRQAPGKEREFVSAISAHEGQAPYYADSVKGRFTISRDNSKNTVYLQMNSLRAEDTATYYCATRAHEPKGMYWGQGTQVTVSS
B6: clone 60 (VHH)
VHH: EVQLQASGGGFVQPGGSLRLSCAASGSTFKHSAMGWFRQAPGKEREFVSAISSGPGMESYYADSVKGRFTISRDNSKNTVYLQMNSLRAEDTATYYCAGRAFPGQKMYWGQGTQVTVSS
B7: clone 44 (VHH)
VHH: EVQLQASGGGFVQPGGSLRLSCAASGFTSGSTAMGWFRQAPGKEREFVSAISRFENQGNYYADSVKGRFTISRDNSKNTVYLQMNSLRAEDTATYYCATRAVASSTMYWGQGTQVTVSS
B8: clone 66 (VHH)
VHH: EVQLQASGGGFVQPGGSLRLSCAASGTGSNASAMGWFRQAPGKEREFVSAISRHEGQPPYYADSVKGRFTISRDNSKNTVYLQMNSLRAEDTATYYCAMRYQSHIDIPGDSSPKLMYWGQGTQVTVSS
B9: clone 57 (VHH)
VHH: EVQLQASGGGFVQPGGSLRLSCAASGGTSFQTAMGWFRQAPGKEREFVSAISSRQGSHPYYADSVKGRFTISRDNSKNTVYLQMNSLRAEDTATYYCATRMTETRKMYWGQGTQVTVSS
B10: clone 49 (VHH)
VHH: EVQLQASGGGFVQPGGSLRLSCAASGGFFTSSTMGWFRQAPGKEREFVSAISRQHDNAPYYADSVKGRFTISRDNSKNMVYLQMNSLRAEDTATYYCAARNATHKGIYWGQGTQVTVSS
B11: clone 3 (VHH)
VHH: EVQLQASGGGFVQPGGSLRLSCAASGSTSYSYNMGWFRQAPGKEREFVSAISRDGDWKNYYADSVKGRFTISRDNSKNTVYLQMNSLRAEDTATYYCAFEEHWMTPLYWGQGTQVTVSS
B12: clone 2 (VHH)
VHH: EVQLQASGGGFVQPGGSLRLSCAASGFFSNIEDMGWFRQAPGKEREFVSAISGYENESPYYADSVKGRFTISRDNSKNTVYLQMNSLRAEDTATYYCAAQSYHGKKGMTEYWGQGTQVTVSS
B13: clone 7 (VHH)
VHH: EVQLQASGGGFVQPGGSLRLSCAASGTSYANSDMGWFRQAPGKEREFVSAISGGDSAYYYYADSVKGRFTISRDNSKNTVYLQMNSLRAEDTATYYCATQQIGMREYYWGQGTQVTVSS
B14: clone 9 (VHH)
VHH: EVQLQASGGGFVQPGGSLRLSCAASGSYSAETDMGWFRQAPGKEREFVSAISGDPTTTTYYADSVKGRFTISRDNSKNTVYLQMNSLRAEDTATYYCAYQRLDNFEIYWGQGTQVTVSS
B15: clone 8 (VHH)
VHH: EVQLQASGGGFVQPGGSLRLSCAASGSTSSHYDMGWFRQAPGKEREFVSAISYNHDHDTYYADSVKGRFTISRDNSKNTVYLQMNSLRAEDTATYYCAGATATTDGGYQEYWGQGTQVTVSS
B16: clone 5 (VHH)
VHH: EVQLQASGGGFVQPGGSLRLSCAASGTTSFRDTMGWFRQAPGKEREFVSAISWNEGHAHYYADSVKGRFTISRDNSKNTVYLQMNSLRAEDTATYYCASEDMWFNHFYWGQGTQVTVSS
B17: clone 10 (VHH)
VHH: EVQLQASGGGFVQPGGSLRLSCAASGRTSWSEIMGWFRQAPGKEREFVSAISRYTDDYSYYADSVKGRFTISRDNSKNTVYLQMNSLRAEDTATYYCATYHYQYGGDQTFYWGQGTQVTVSS
B18: clone 4 (VHH)
VHH: EVQLQASGGGFVQPGGSLRLSCAASGRTFRIDTMGWFRQAPGKEREFVSAISFDTSHENYYADSVKGRFTISRDNSKNTVYLQMNSLRAEDTATYYCAPESMWFSIEYWGQGTQVTVSS
B19: clone 6 (VHH)
VHH: EVQLQASGGGFVQPGGSLRLSCAASGTTYSSDTMGWFRQAPGKEREFVSAISGRQNWDRYYADSVKGRFTISRDNSKNTVYLQMNSLRAEDTATYYCAYWGHGTYEFDPKSMYWGQGTQVTVSS
B20: clone 1 (VHH)
VHH: EVQLQASGGGFVQPGGSLRLSCAASGDTYRWDNMGWFRQAPGKEREFVSAISGLGNMDSYYADSVKGRFTISRDNSKNTVYLQMNSLRAEDTATYYCAQEEKWMSPQYWGQGTQVTVSS

In the first experiment the target is T1, EF-Biotin.
Experiment: not given
Take B1: the “Phage ELISA Ag+/Ag-” value amounted to 44.5 ratio.
Same read-out and setting: as for B2, the figure is 36.7 ratio; as for B3, 36.2 ratio; as for B4, 31.5 ratio.
On the same count and under the same terms, next, B5: 51.3 ratio.
For the molecule B6, the “Phage ELISA Ag+/Ag-” value was found to be 43.6 ratio.
Same read-out and setting: as for B7, the figure is 52.7 ratio; as for B8, 51.8 ratio.
Same read-out and setting: next, B9: 40.1 ratio.
The same measure, in the same setting: as for B10, the figure is 36.7 ratio.

In a further experiment the target is T2, LF-Biotin. As to the kind of experiment: non-adsorbed phage ELISA, VHH on M13 phage, LF-Biotin vs His-SNAP-Halo-Biotin. On the technique in general: An ELISA detects its analyte on a solid surface through an enzyme-linked reagent.
For the molecule B11, the “Phage ELISA ratio signal LF/signal His-SNAP-Halo” value worked out at 47.2 ratio.
Still for that read-out and setting: as for B12, the figure is 36.5 ratio; as for B13, 17 ratio.
On the same count and under the same terms, as for B14, the figure is 38.1 ratio; as for B15, 30.2 ratio.
The same measure, in the same setting: as for B16, the figure is 41.5 ratio; as for B17, 7.7 ratio; as for B18, 34.6 ratio.
Turning to B19, the “Phage ELISA ratio signal LF/signal His-SNAP-Halo” value was found to be 8.9 ratio.
Take B20: the “Phage ELISA ratio signal LF/signal His-SNAP-Halo” value worked out at 45.5 ratio.

The target of a further experiment is T1, EF-Biotin. As to the kind of experiment: non-adsorbed VHH ELISA, IPTG-induced VHH-myc, EF-Biotin (Ag+) vs control (Ag-).
As to B1, the “Phage IPTG Ag+/Ag-” value stood at 6.6 ratio.
For the molecule B2, the “Phage IPTG Ag+/Ag-” value turned out to be 5.7 ratio.
The same measure, in the same setting: as for B3, the figure is 5 ratio; as for B4, 6.2 ratio.
Consider B5, for which the “Phage IPTG Ag+/Ag-” value was found to be 10.2 ratio.
On the same count and under the same terms, next, B6: 4.9 ratio; B7: 6.1 ratio.
Take B8: the “Phage IPTG Ag+/Ag-” value was determined as 5.8 ratio.
As for B9, the “Phage IPTG Ag+/Ag-” value was found to be 6.3 ratio.
The same measure, in the same setting: next, B10: 3.6 ratio.

The target in another experiment is T2, LF-Biotin. Nature of the experiment: non-adsorbed VHH ELISA, IPTG-induced VHH-myc, LF-Biotin vs His-SNAP-Halo-Biotin.
Turning to B11, the “Induced ELISA ratio Signal LF/signal His-SNAP-Halo” value stood at 6.3 ratio.
As to B12, the “Induced ELISA ratio Signal LF/signal His-SNAP-Halo” value worked out at 5 ratio.
Still for that read-out and setting: next, B13: 6.8 ratio; B14: 4.6 ratio; B15: 5.5 ratio.
As to B16, the “Induced ELISA ratio Signal LF/signal His-SNAP-Halo” value stood at 8 ratio.
As for B17, the “Induced ELISA ratio Signal LF/signal His-SNAP-Halo” value is 3.9 ratio.
The same measure, in the same setting: as for B18, the figure is 9.2 ratio.
On the same count and under the same terms, next, B19: 7.3 ratio; B20: 6.3 ratio.
